According to PMC7272049 (2020):
Blank lines part the entries; values can stand above or below the binder they belong to.

Tests used:
Experiment in all cases: FACS
mPD-L1 R125A mCherry = mPD-L1 R125A mCherry (mouse, UniProt Q9EP73 19-290, R125A)
mPD-L1 K124A mCherry = mPD-L1 K124A mCherry (mouse, UniProt Q9EP73 19-290, K124A)
mPD-L1 G120D mCherry = mPD-L1 G120D mCherry (mouse, UniProt Q9EP73 19-290, G120D)
mPD-L1 Y56A mCherry = mPD-L1 Y56A mCherry (mouse, UniProt Q9EP73 19-290, Y56A)
mPD-L1 G119D mCherry = mPD-L1 G119D mCherry (mouse, UniProt Q9EP73 19-290, G119D)
WT mPD-L1 mCherry = WT mPD-L1 mCherry (mouse, UniProt Q9EP73 19-290)
mPD-L1 D49R mCherry = mPD-L1 D49R mCherry (mouse, UniProt Q9EP73 19-290, D49R)
D28R = D28R (Mus musculus)
mPD-L1 Y123R mCherry = mPD-L1 Y123R mCherry (mouse, UniProt Q9EP73 19-290, Y123R)
mPD-L1 D122A mCherry = mPD-L1 D122A mCherry (mouse, UniProt Q9EP73 19-290, D122A)
mPD-L1 D122A mCherry, sequence (Q9EP73 19-290 D122A): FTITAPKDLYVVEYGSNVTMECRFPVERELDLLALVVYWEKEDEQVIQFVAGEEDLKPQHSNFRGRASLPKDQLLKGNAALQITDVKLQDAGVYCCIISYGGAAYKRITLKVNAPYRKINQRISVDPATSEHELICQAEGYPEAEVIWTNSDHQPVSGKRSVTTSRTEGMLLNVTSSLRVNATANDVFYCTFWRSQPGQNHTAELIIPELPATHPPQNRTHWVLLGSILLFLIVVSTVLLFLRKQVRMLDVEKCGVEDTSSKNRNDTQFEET

mPD-L1 K124A mCherry, sequence (Q9EP73 19-290 K124A): as the sequence (Q9EP73 19-290 D122A) above, with A104D, K106A counted along it
mPD-L1 R125A mCherry, sequence (Q9EP73 19-290 R125A): as the sequence (Q9EP73 19-290 D122A) above, with A104D, R107A counted along it
D28R (Mus musculus), sequence (chain, as listed by the source D28R): as the sequence (Q9EP73 19-290 D122A) above, with D8R, A104D counted along it
mPD-L1 Y56A mCherry, sequence (Q9EP73 19-290 Y56A): as the sequence (Q9EP73 19-290 D122A) above, with Y38A, A104D counted along it
mPD-L1 Y123R mCherry, sequence (Q9EP73 19-290 Y123R): as the sequence (Q9EP73 19-290 D122A) above, with A104D, Y105R counted along it
WT mPD-L1 mCherry, sequence (Q9EP73 19-290): as the sequence (Q9EP73 19-290 D122A) above, with A104D counted along it
mPD-L1 G119D mCherry, sequence (Q9EP73 19-290 G119D): as the sequence (Q9EP73 19-290 D122A) above, with G101D, A104D counted along it
mPD-L1 D49R mCherry, sequence (Q9EP73 19-290 D49R): as the sequence (Q9EP73 19-290 D122A) above, with D31R, A104D counted along it
mPD-L1 G120D mCherry, sequence (Q9EP73 19-290 G120D): as the sequence (Q9EP73 19-290 D122A) above, with G102D, A104D counted along it

B3: mB7-1 mIgG2a (Fc fusion)
chain: VDEQLSKSVKDKVLLPCRYNSPHEDESEDRIYWQKHDKVVLSVIAGKLKVWPEYKNRTLYDNTTYSLIILGLVLSDRGTYSCVVQKKERGTYEVKHLALVKLSIKADFSTPNITESGNPSADTKRITCFASGGFPKPRFSWLENGRELPGINTTISQDPESELYTISSQLDFNTTRNHTIKCLIKYGDAHVSEDFTWEKPPEDPPDSKN
- EC50 (mPD-L1 R125A mCherry): 20.2 nM
- EC50 (mPD-L1 K124A mCherry): 54.9 nM
- EC50 (mPD-L1 Y123R mCherry): 7.7 nM
- EC50 (mPD-L1 D122A mCherry): 68.2 nM

B4: mB7-1 mIgG2a (Fc fusion)
chain: B3 chain
modifications: Cell-surface full-length mPD-L1 with a C-terminal mCherry (left out); limits are not given, so the mature chain 19-290 is used. The paper prints D28R, but residue 28 of Q9EP73 is Tyr. The only nearby Asp is D26, which lies at the PD-1 interface, so D28R is read as D26R. The paper's other PD-L1 numbers match the precursor numbering.
- EC50 (D28R): 18.8 nM

Other lines, results leading:

- EC50 (mPD-L1 R125A mCherry): 38.8 nM
- EC50 (mPD-L1 K124A mCherry): 42.9 nM
- EC50 (mPD-L1 G120D mCherry): 2.5 nM
- EC50 (mPD-L1 Y56A mCherry): 1.9 nM
- EC50 (mPD-L1 G119D mCherry): 2 nM
- EC50 (WT mPD-L1 mCherry): 1.8 nM
- EC50 (mPD-L1 D49R mCherry): 1.8 nM
B1: mPD-1 mIgG2a (Fc fusion)
chain: LEVPNGPWRSLTFYPAWLTVSEGANATFTCSLSNWSEDLMLNWNRLSPSNQTEKQAAFCNGLSQPVQDARFQIIQLPNRHDFHMNILDTRRNDSGIYLCGAISLHPKAKIEESPGAELVVTERILETSTRYPSPSPKPEGRFQGM

- EC50 (D28R): 2.6 nM
B2: mPD-1 mIgG2a (Fc fusion)
chain: B1 chain
modifications: Cell-surface full-length mPD-L1 with a C-terminal mCherry (left out); limits are not given, so the mature chain 19-290 is used. The paper prints D28R, but residue 28 of Q9EP73 is Tyr. The only nearby Asp is D26, which lies at the PD-1 interface, so D28R is read as D26R. The paper's other PD-L1 numbers match the precursor numbering.
